Data reported in IntAct's records for PubMed 24671035.

B1: FUN14 domain-containing protein 1 (Homo sapiens), Q8IVP5 (parent)
chain: MATRNPPPQDYESDDDSYEVLDLTEYARRHQWWNRVFGHSSGPMVEKYSVATQIVMGGVTGWCAGFLFQKVGKLAATAVGGGFLLLQIASHSGYVQIDWKRVEKDVNKAKRQIKKRANKAAPEINNLIEEATEFIKQNIVISSGFVGGFLLGLAS
partner: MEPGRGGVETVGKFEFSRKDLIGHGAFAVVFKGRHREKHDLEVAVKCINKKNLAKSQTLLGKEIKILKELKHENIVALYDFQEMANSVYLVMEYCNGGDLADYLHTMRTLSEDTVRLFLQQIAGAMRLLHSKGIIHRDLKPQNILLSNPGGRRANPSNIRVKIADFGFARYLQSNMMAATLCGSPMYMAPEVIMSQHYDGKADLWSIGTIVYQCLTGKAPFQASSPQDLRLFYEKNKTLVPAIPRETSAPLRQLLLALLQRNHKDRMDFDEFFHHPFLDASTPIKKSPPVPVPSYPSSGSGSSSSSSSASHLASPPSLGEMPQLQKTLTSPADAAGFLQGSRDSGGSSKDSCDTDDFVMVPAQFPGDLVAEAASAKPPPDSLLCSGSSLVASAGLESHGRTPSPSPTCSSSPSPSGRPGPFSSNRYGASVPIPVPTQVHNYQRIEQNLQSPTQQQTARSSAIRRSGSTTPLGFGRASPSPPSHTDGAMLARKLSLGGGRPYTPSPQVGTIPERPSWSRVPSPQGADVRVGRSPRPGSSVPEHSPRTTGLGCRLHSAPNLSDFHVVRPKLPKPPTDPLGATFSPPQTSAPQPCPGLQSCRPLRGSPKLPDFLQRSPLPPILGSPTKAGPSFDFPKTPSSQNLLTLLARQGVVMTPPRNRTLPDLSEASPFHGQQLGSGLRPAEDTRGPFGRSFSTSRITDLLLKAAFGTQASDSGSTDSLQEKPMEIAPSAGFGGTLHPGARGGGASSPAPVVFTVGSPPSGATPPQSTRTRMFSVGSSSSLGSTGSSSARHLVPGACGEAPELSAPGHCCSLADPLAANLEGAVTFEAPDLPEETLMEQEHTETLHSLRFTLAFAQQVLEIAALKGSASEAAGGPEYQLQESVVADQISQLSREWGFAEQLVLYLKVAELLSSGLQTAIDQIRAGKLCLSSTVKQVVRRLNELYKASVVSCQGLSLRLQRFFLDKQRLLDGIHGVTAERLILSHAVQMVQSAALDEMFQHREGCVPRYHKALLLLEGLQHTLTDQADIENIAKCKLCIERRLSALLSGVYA
B2: FUN14 domain-containing protein 1 (Homo sapiens), Q8IVP5 (parent)
chain: B1 chain

Variants of: B1
Settings: with ulk1_mouse Ulk1, O70405

Variant	effect of a mutation on the interaction
MATRNPPPQDYESDDDSYEVLDLTEYARRHQWWNRVFGHSSGPMVEKYSVATQIVMGGVTGWCAGFLFQKVGKLAATAVGGGFLLLQIASHSGYVQIDWKRVEKDVNKAKRQIKKRAAKAAPEINNLIEEATEFIKQNIVISSGFVGGFLLGLAS	disrupting interaction

Variants of: B2
Settings: with mlp3b_human MAP1LC3B

Variant	effect of a mutation on the interaction
MATRNPPPQDYESDDDAYEVLDLTEYARRHQWWNRVFGHSSGPMVEKYSVATQIVMGGVTGWCAGFLFQKVGKLAATAVGGGFLLLQIASHSGYVQIDWKRVEKDVNKAKRQIKKRANKAAPEINNLIEEATEFIKQNIVISSGFVGGFLLGLAS	decreasing interaction

Variants of: B2
Settings: with mlp3b_human MAP1LC3B
Remark: another data set of the same source

Variant	effect of a mutation on the interaction
MATRNPPPQDYESDDDDYEVLDLTEYARRHQWWNRVFGHSSGPMVEKYSVATQIVMGGVTGWCAGFLFQKVGKLAATAVGGGFLLLQIASHSGYVQIDWKRVEKDVNKAKRQIKKRANKAAPEINNLIEEATEFIKQNIVISSGFVGGFLLGLAS	increasing interaction
